The nanobody polyreactivity screen of Harvey et al. (2022)

Experiment: yeast display, Sf9 membrane polyspecificity reagent, FACS + sequencing; frameworks hold sequencing errors
Outline: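 In a synthetic yeast display library (Saccharomyces cerevisiae BJ5465), nanobody expression was induced with galactose for 36–48 hours. FACS gates were set low and high (top ~1%) using anti-HA fluorescence for expression and streptavidin fluorescence for binding of the Sf9 membrane reagent. Each polyreactivity label is drawn from the gate of origin.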

| Sequence | polyreactivity (PSR sort gate) |
| --- | --- |
| QVQLVESGGGLVQAGGSLRISCAASGSTLRRYAMGWYRQAPGKERELVAAISGSGDSTYYADSVKGRFTISRDNAKNTVYLQMNSLKPEDTAVYYCNAVYAFNGYDYWGQGTQVTVSS | low polyreactivity |
| QVQLVESGGGLVQAGGSLRISCAASGSTVHYMAWYRQAPGKEREMVAGISWSGGSTYYADSVKGRFTISRDNAKNTVYLQMNSLKPEETAVYYCAADHFNYTSGRDYWGQGTQVTVSS | low polyreactivity |
| QVQLVESGGGLVQAGGSLRISCAASGYIFRFNAMGCYRPAPGKERELVAVITSGARTYYADSVKGRFTISRDNAKNTVYLQMNSLKPEDNAVYYCNAGARRYLYDYWGQGTQVTVSS | low polyreactivity |
| QVQLVESGGGLVQAGGSLRISCAASGYTFKNNTMGWYRQAPGKERELVAAISVSGGSTYYADSVKGRFTISRDNAKKTVYLQMNSLKPEDTAVYYCTALREVPLFLVYIGGCYWGQGTQVTVSS | low polyreactivity |
| QVQLVESGGGLVQAGGSLRISCAASGYTFYSNAMGWYRQAPGKERELVASIRSRGRSTYYADSVKGRFTISRDNAKYSVYLQMNSLNPEDTAVYYCAALRNKPAVYAYDYWGQGTQVTVSS | low polyreactivity |
| QVQLVESGGGLVQAGGSLRISCAPSGGILYHYVMGWYRQAPGTERELVAAISRAGRTYYADSVKGRFTISRDNAKNTVYLQMNSLKPEDTAVYYCNAYFRYFYWGLGTQVTVSS | high polyreactivity |
| QVQLVESGGGLVQAGGSLRISCAPSGIIFEYYALGCSRQAPGKEREVVAAIFSGGSTYYADSVKGRFTISRDNAKNTVYLLMNSLKAEDNAVYYCAAEYLAWGQGTQVTVSS | high polyreactivity |
| QVQLVESGGGLVQAGGSLRISCAPSGLIFKYNAMGWYRQAPGKERDLVADINRSGGSTYYADSVKCRFTISRDNAKNTVYLQMNSLKPEDTEVYYCAAERDSLYWVLFGYWGQGTQVTVSS | low polyreactivity |
| QVQLVESGGGLVQAGGSLRISCASSGSTFGYYAIGWYRQAPGKESELVAAIRRSGGRTYYADSVKGRFTISRDNAKNTVYLQLNSLKPEDTAVYYCAKDGYSRRNSQKTPYDYWGQGTQVTVSS | low polyreactivity |
| QVQLVESGGGLVQAGGSLRISCDASGSTFSRYTLGWYRQAPVKEREMVAAISYRGGSTYYADSVKGRFTISRDNAKNTVYLQMNSLKPEDSAVYYCNADVPRIPYPDMEYWGQGTQVTVSS | low polyreactivity |
| QVQLVESGGGLVQAGGSLRITCAASGSILFAKSMGWYRQAPGKERELVADIRGSGSTYYADSVKGRFTISRDNAKNTVYLQMNSLKPEDTAVYYCAKRHLISIPDYGRHEYYYWGQGTQVTVSS | low polyreactivity |
| QVQLVESGGGLVQAGGSLRKSCAASGRIFGINAMGWSRQAPGNERELVAAITWGVGSTYYADSVKGRFTISRDNAKNTVYLQMNSLKPEDTAVYYCAKRRYYGYGGDYWGQGTQVTVSS | high polyreactivity |
| QVQLVESGGGLVQAGGSLRKSCAASGRIFSANAIGWYRKAPGTEWELVAAITCSGGSTYYADSVKGRFTISRDTAKNTVYLQMHSLKPEETAVYYCAAESAAYGGGTSDAGYESDYWGQGTQVTVSS | low polyreactivity |
| QVQLVESGGGLVQAGGSLRLAVLPPDLPSTLNDRGWYRQAPGKESELVAAITSGGNTYYADSVKGRFTISRDNAKNTVYLQMNSLKPEDTAVYYCAATYYWAWGGVYHSEFDYWGQGTQVTLSS | low polyreactivity |
| QVQLVESGGGLVQAGGSLRLCCAASGIIFQRNDMGWYRQAPGKERELVANIRDGGITYADSVKGRFTISRDNAKNTVYLQMNSLKPEDTAVYYCARDDTSPGYGDQSSIAAYYYWGQGTQVTVSS | low polyreactivity |
| QVQLVESGGGLVQAGGSLRLICAASGFIFGDYTMGWYRPAPGKEREVVAAITWYGDSTYYADSVKGRFTISRDNAKNTVYLQMNTLKTEDTAVYYCNAVNDWYYAYYGVTSFRSYDYWGQGSQVTVSS | low polyreactivity |
| QVQLVESGGGLVQAGGSLRLICAASGFIFGGYGMGWYRQAPGKERELVAVITASGGSTYYADSVKGRFTISRDNAKNTVYLQMNSLKPEDTAVYYCAARVGRYGYSQYYYWGQGTQVTVSS | high polyreactivity |
| QVQLVESGGGLVQAGGSLRLICAASGFIFRRYDMGWYRQAPGKERELVATITASVGSTNYADSVKGRFTISRDNAKNTVYLQMNSLKPEDTAVYYCATDIIGAIRVWDHTRMDYWGQGTQVTVSS | low polyreactivity |
| QVQLVESGGGLVQAGGSLRLICAASGFIFSSHAMGWYRQAPGKERELVAAISRSGGRTYYADSVKGRFTITRDNAKNTVYLQMNSLKPEDTAVYYCAAKRWWQYYWGQGTQVTVSS | high polyreactivity |
| QVQLVESGGGLVQAGGSLRLICAASGFIFTGYVMGWYRQEPGKERELVAAISSRGGSTYYADSVKGRFTISRDNAKNTVYLQMNSLKPEDTAVYYCAARYVYGSSYDYWGQGTQVTVSS | high polyreactivity |
| QVQLVESGGGLVQAGGSLRLICAASGFIFTYYGMGWYRQAPGKERELVAAITWSGASTYYADSVKGRFTISRDNAKNTVYLQMNSLKPEDTAVYYCNAGWDSGIVQSDETVYKYDYWGQGTQVTVSS | low polyreactivity |
| QVQLVESGGGLVQAGGSLRLICAASGFIYFFYAMGWSRQAPGKEMEFVAVITQSGGSTYYADSVKGRFTISRDNAKNTVYLQMNSLKPEDTAVYYFNADTVRYYPFFSVRYYYWGQGTQVTVSS | low polyreactivity |
| QVQLVESGGGLVQAGGSLRLICAASGFIYHNAMGWYRQATGTERELVARITWSGGSTSYADSVKGRFTISRDNAKNTVYLQKNSLKPEDTAVYYCAARGVVYRYGASRGYWGQGTQVTVSS | high polyreactivity |
| QVQLVESGGGLVQAGGSLRLICAASGFNFVTNAMGWYRQAPGKERELVAAISRRGGSTYYADSVKGRFTISRDIAKNTVYLQMNSLKPEDTAVLYCAAVTLSAESGYYWGHGTQVTVSS | high polyreactivity |
| QVQLVESGGGLVQAGGSLRLICAASGFSLYRNSMGWYRQAPGTERELVAAISSSGGRTYYADSVKGRFTISRDNAKNTVYLQMNSLKPEDTAVYYCAADFYRYGPQLGYWGQGTQVTVSS | high polyreactivity |
| QVQLVESGGGLVQAGGSLRLICAASGFTFFSYTMGWYRQAPGKERELVAAISKRGSRTYYADSVKGRFTISRDNAKNTVYLQMNSLKQEDTAVYYCAADSGPEVVHRREDYWGQGTQVTLSS | high polyreactivity |
| QVQLVESGGGLVQAGGSLRLICAASGFTFRTYAMGWYRQAPGKERELVAAINYSGGSTYYADSVKGRFTISRDNAKNTVYLQMNSVKPEDTAVYYCNKQRDVQVYVRYPMNYWGQGTQVTVSS | low polyreactivity |
| QVQLVESGGGLVQAGGSLRLICAASGFTFTDYAMGWYRQAPGKERELVAVIDSGGSTYYADSVKGRFTISRDNAKNTVYLQMNSLKPEDTAVYYCAAYNGTAPSEDYLGQGTQVTVSS | low polyreactivity |
| QVQLVESGGGLVQAGGSLRLICAASGFTLDQYAMGWYRPAPGKERELVAVITSGGNTYYADSVKGRFTISRDNAKNTVYLQMNSLKPEDTAVYYCAKDVSDPFYDPFEYWGQGTQVTVSS | low polyreactivity |
| QVQLVESGGGLVQAGGSLRLICAASGFTLDWYVMGWYRQAPGKERELVAAISSSGGRTYYADSVKGRFTISRDNEKNTVYLQMNSLKPEDPAVYYCAARNKYGGYPYGYDYWGQGTQVTVSS | high polyreactivity |
